Results on three molecules are retold here after US20200347137A1.

A word on the Kd: it is a measure of binding affinity in units of concentration. For orientation: koff means a measure of how fast the partners let go of each other. The term kon denotes the rate constant with which the complex forms.

B1: PL230C6 scFv-Fc (Fc fusion, part only; not given: linker and Fc, part only)
chain, part: QSVEESGGGLVQPGGSLRLSCTASGIDLNTYDMIWVRQAPGKGLEWVGIITYSGSRYYANWAKGRFTISKDNTKNTVYLQMNSLRAEDTAVYYCARDYMSGSHLWGQGTLVTVSSGGGGSGGGGSGGGGSGGGGSAYDMTQSPSSVSASVGDRVTIKCQASEDIYSFLAWYQQKPGKAPKLLIHSASSLASGVPSRFSGSGSGTDFTLTISSLQPEDFATYYCQQGYGKNNVDNAFGGGTKVEIK
B2: PL221G5 scFv-Fc (Fc fusion, part only; not given: linker and Fc, part only)
chain, part: EVQLLESGGGLVQPGGSLRLSCAASGFSFSSGYDMCWVRQAPGKGLEWIACIAAGSAGITYDANWAKGRFTISRDNSKNTLYLQMNSLRAEDTAVYYCARSAFSFDYAMDLWGQGTLVTVSSGGGGSGGGGSGGGGSGGGGSDIQMTQSPSTLSASVGDRVTITCQASQSISSHLNWYQQKPGKAPKLLIYKASTLASGVPSRFSGSGSGTEFTLTISSLQPDDFATYYCQQGYSWGNVDNVFGGGTKVEIK
B3: PL004B9 scFv-Fc (Fc fusion, part only; not given: linker and Fc, part only)
chain, part: EVQLVESGGGLVQPGGSLRLSCTVSGIDLSVINMGWVRQAPGKGLEWIGTITYVGNTYYASWAKGRFTISKTSTTVDLKITSPTTEDTAVYYCARESGTIYYSYFNLWGQGTLVTVSSGGGGSGGGGSGGGGSGGGGSAFELTQSPSSLSASVGDRVTIKCQASESISNYLSWYQQIPGKVPKLLIYYASNLASGVPSRFSGSGSGTDFTLTISSLQPEDVATYYCQSYYGGGSAYTFGGGTKVEIK

The target of this experiment is PD-L1 recombinant protein (human) (UniProt Q9NZQ7). In words: ForteBio Octet RED96, PD-L1 immobilised, antibody in solution. A general note: BLI is a label-free optical method that tracks binding on a fibre tip over time.
Chain of PD-L1 recombinant protein (human) (Q9NZQ7 19-238 limits assumed): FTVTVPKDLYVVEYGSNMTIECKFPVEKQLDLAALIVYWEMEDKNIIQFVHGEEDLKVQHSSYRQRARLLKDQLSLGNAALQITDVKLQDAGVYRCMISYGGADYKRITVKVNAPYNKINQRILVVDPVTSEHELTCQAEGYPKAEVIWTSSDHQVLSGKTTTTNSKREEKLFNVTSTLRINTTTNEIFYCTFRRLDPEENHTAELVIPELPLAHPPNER
Take B1: the Kd was 0.917 nM, the koff came to 0.000461 s⁻¹ and the kon is 503000 M⁻¹ s⁻¹.

With B2, the Kd came out at 0.597 nM, the koff was determined as 0.000303 s⁻¹ and the kon came out at 508000 M⁻¹ s⁻¹.

Take B3: the Kd is 1.42 nM, the koff turned out to be 0.00055 s⁻¹ and the kon is 387000 M⁻¹ s⁻¹.
